From article doi:10.1101/2024.09.20.614047, “The Role of ATP Synthase Subunit e (ATP5I) in Mediating the Metabolic and Antiproliferative Effects of Metformin” (bioRxiv, 2024)

Target: the molecule itself
Test: SEC; gel filtration of purified rATP5I (Superose 12 10/300 GL in legend B; calibrated Superose 6 10/300 GL in legend C); oligomeric state of the protein in solution

B1: recombinant purified ATP5I (ATP synthase subunit e), N-terminal 6x-His-tagged (natural protein, human, UniProt P56385 1-69, looked up)
chain: MVPPVQVSPLIKLGRYSALFLGVAYGATRYNYLKPRAEEERRIAAEEKKKQDELKRIARELAEDDSILK
notes: No cleavage of the His tag is described; the gel filtration legend names the Nter-6×His-ATP5I construct; also called rATP5I; recombinant ATP5I; source: Rosetta E. coli BL21, purified (solubilised in 6 M guanidine, HisTrap FF, desalting column, concentrated); not shown: 6x-His, N-terminal, kept
Question: Which “stoichiometry N” value does the source give for B1 here?
Answer: ~10
